In paper doi:10.1101/2025.03.26.644761 (bioRxiv, 2025):

Legend:
[1] = target: T1, His6-YPet-mRIPK3_(379-486) (mouse, UniProt Q9QZL0 379-486); experiment: SDS semi-denaturing agarose gel electrophoresis
T1 sequence (looked up): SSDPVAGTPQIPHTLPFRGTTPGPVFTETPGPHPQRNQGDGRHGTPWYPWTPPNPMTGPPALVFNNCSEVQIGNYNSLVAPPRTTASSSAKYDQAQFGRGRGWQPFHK

[2] = target: the molecule itself; experiment: single molecule fluorescence
[3] = target: the molecule itself; experiment: solid-state NMR of homomeric fibrils
[4] = target: the molecule itself; experiment: Thioflavin T fluorescence + negative stain transmission electron microscopy
[5] = target: T2, His6-YPet-hRIPK3_(387–518) (human, UniProt Q9Y572 387-518); experiment: Two-Colour Coincidence Detection spectroscopy
T2 sequence (looked up): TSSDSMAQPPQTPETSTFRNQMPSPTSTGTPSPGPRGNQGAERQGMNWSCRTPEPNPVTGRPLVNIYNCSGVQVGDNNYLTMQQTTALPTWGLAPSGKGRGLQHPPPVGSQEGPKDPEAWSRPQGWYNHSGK

B1: His6-M45_(1–90)-mCherry, wild type (domain or fragment, murine cytomegalovirus (MCMV), UniProt Q06A28 1-90, looked up)
chain: MDRQPKVYSDPDNGFFFLDVPMPDDGQGGQQTATTAAGGAFGVGGGHSVPYVRIMNGVSGIQIGNHNAMSIASCWSPSYTDRRRRSYPKT
- binding result [1]: binds
- binding result [2]: binds

B2: M45_(1-90), RHIM-containing N-terminal region of MCMV M45 (viral inhibitor of RIP activation), tag removed (domain or fragment, murine cytomegalovirus (MCMV), UniProt Q06A28 1-90, looked up)
chain: MDRQPKVYSDPDNGFFFLDVPMPDDGQGGQQTATTAAGGAFGVGGGHSVPYVRIMNGVSGIQIGNHNAMSIASCWSPSYTDRRRRSYPKT
- binding result [3]: binds

B3: His6-M45_(1–90)-mCherry, AAAA mutant A (domain or fragment, murine cytomegalovirus (MCMV), UniProt Q06A28 1-90, looked up)
chain: MDRQPKVYSDPDNGFFFLDVPMPDDGQGGQQTATTAAGGAFGVGGGHSVPYVAAAAGVSGIQIGNHNAMSIASCWSPSYTDRRRRSYPKT
- binding result [4]: binds
- binding result [5]: binds

B4: His6-M45_(1–90)-mCherry, AAAA mutant B (domain or fragment, murine cytomegalovirus (MCMV), UniProt Q06A28 1-90, looked up)
chain: MDRQPKVYSDPDNGFFFLDVPMPDDGQGGQQTATTAAGGAFGVGGGHSVPYVRIMNAAAAIQIGNHNAMSIASCWSPSYTDRRRRSYPKT
- binding result [2]: binds
- binding result [5]: binds

B5: His6-M45_(1–90)-mCherry, AAAA mutant E (domain or fragment, murine cytomegalovirus (MCMV), UniProt Q06A28 1-90, looked up)
chain: MDRQPKVYSDPDNGFFFLDVPMPDDGQGGQQTATTAAGGAFGVGGGHSVPYVRIMNGVSGIQIGNHNAAAAASCWSPSYTDRRRRSYPKT
- binding result [5]: binds

B6: His6-M45_(1–90)-mCherry, AAAA mutant C (domain or fragment, murine cytomegalovirus (MCMV), UniProt Q06A28 1-90, looked up)
chain: MDRQPKVYSDPDNGFFFLDVPMPDDGQGGQQTATTAAGGAFGVGGGHSVPYVRIMNGVSGAAAANHNAMSIASCWSPSYTDRRRRSYPKT
- binding result [5]: binds

B7: His6-M45_(1–90)-mCherry, AAAA mutant D (domain or fragment, murine cytomegalovirus (MCMV), UniProt Q06A28 1-90, looked up)
chain: MDRQPKVYSDPDNGFFFLDVPMPDDGQGGQQTATTAAGGAFGVGGGHSVPYVRIMNGVSGIQIGAAAAMSIASCWSPSYTDRRRRSYPKT
- binding result [5]: binds

B8: RIPK3_(387-518), RHIM-containing region of human RIPK3, tag removed (domain or fragment, UniProt Q9Y572 387-518, looked up)
chain: TSSDSMAQPPQTPETSTFRNQMPSPTSTGTPSPGPRGNQGAERQGMNWSCRTPEPNPVTGRPLVNIYNCSGVQVGDNNYLTMQQTTALPTWGLAPSGKGRGLQHPPPVGSQEGPKDPEAWSRPQGWYNHSGK
- binding result [3]: binds
